These substances were tested against Polyclonal antibody ab6982 (Abcam) (assay: cyclic peptide microarray, fiber peptides).
Work on AHLIIRF (peptide) yielded a rank of binding signal of 6 rank. With AQNQLNI (peptide) the rank of binding signal was 172 rank. For ARPSEDT (peptide), the rank of binding signal was 41 rank. In the case of ATSSYTF (peptide), the rank of binding signal is reported as 80 rank. In the case of AYSMSFS (peptide), the rank of binding signal is reported as 167 rank. For DPEYWNE (peptide), the rank of binding signal was 53 rank. With DTFNPVY (peptide) the rank of binding signal was 130 rank. EYWNFRN (peptide) gave a rank of binding signal of 113 rank. FLDPEYW (peptide) showed a rank of binding signal of 50 rank. FSWDWSG (peptide) showed a rank of binding signal of 186 rank. Substance FVSPNG (peptide) has a rank of binding signal of 13 rank. GQGPLFI (peptide) was tested, and the rank of binding signal was 58 rank. Work on HLIIRFD (peptide) yielded a rank of binding signal of 60 rank. With HNLDINY (peptide) the rank of binding signal was 9 rank. Work on IFATSSY (peptide) yielded a rank of binding signal of 104 rank. In the case of LGQGPLF (peptide), the rank of binding signal is reported as 27 rank. LGTGLSF (peptide) was tested, and the rank of binding signal was 44 rank. LNLRLGQ (peptide) was tested, and the rank of binding signal was 173 rank. LNNSFLD (peptide) gave a rank of binding signal of 180 rank. For MSFSWDW (peptide), the rank of binding signal was 22 rank. NKGLYLF (peptide) was tested, and the rank of binding signal was 20 rank. Substance NQLNLRL (peptide) has a rank of binding signal of 72 rank. NYINEIF (peptide) gave a rank of binding signal of 16 rank. PELTPPF (peptide) was tested, and the rank of binding signal was 47 rank. PEYWNFR (peptide) gave a rank of binding signal of 31 rank. In the case of QGPLFIN (peptide), the rank of binding signal is reported as 93 rank. QLNLRLG (peptide) gave a rank of binding signal of 136 rank. Substance QNQLNLR (peptide) has a rank of binding signal of 82 rank. Substance QSAHLII (peptide) has a rank of binding signal of 126 rank. For RPSEDTF (peptide), the rank of binding signal was 24 rank. Substance SAHLIIR (peptide) has a rank of binding signal of 65 rank. Work on SAYSMSF (peptide) yielded a rank of binding signal of 108 rank. SFSWDWS (peptide) was tested, and the rank of binding signal was 100 rank. In the case of SMSFSWD (peptide), the rank of binding signal is reported as 144 rank. With SSYTFSY (peptide) the rank of binding signal was 42 rank. SWDWSGH (peptide) showed a rank of binding signal of 193 rank. Substance SYTFSYI (peptide) has a rank of binding signal of 64 rank. In the case of YINEIFA (peptide), the rank of binding signal is reported as 168 rank. In the case of YSMSFSW (peptide), the rank of binding signal is reported as 8 rank. With YTESYIA (peptide) the rank of binding signal was 181 rank.

These substances were tested against Polyclonal antibody ab6982 (Abcam) (assay: cyclic peptide microarray, hexon peptides).
ALEINLE (peptide) was tested, and the rank of binding signal was 33 rank. For DDDNEDE (peptide), the rank of binding signal was 96 rank. Substance DDNEDEV (peptide) has a rank of binding signal of 78 rank. In the case of DEVDEQA (peptide), the rank of binding signal is reported as 10 rank. DIETPDT (peptide) was tested, and the rank of binding signal was 62 rank. In the case of DRMYSFF (peptide), the rank of binding signal is reported as 86 rank. Substance EDDDNED (peptide) has a rank of binding signal of 63 rank. For EDEVDEQ (peptide), the rank of binding signal was 126 rank. Substance EEDDDNE (peptide) has a rank of binding signal of 108 rank. In the case of EINLEEE (peptide), the rank of binding signal is reported as 6 rank. ETPDTHI (peptide) gave a rank of binding signal of 51 rank. Substance EVDEQAE (peptide) has a rank of binding signal of 17 rank. In the case of GDRTRYF (peptide), the rank of binding signal is reported as 80 rank. With IETPDTH (peptide) the rank of binding signal was 45 rank. IGYQGFY (peptide) was tested, and the rank of binding signal was 136 rank. Work on INLEEED (peptide) yielded a rank of binding signal of 32 rank. KDRMYSF (peptide) gave a rank of binding signal of 143 rank. In the case of LEINLEE (peptide), the rank of binding signal is reported as 4 rank. NIGYQGF (peptide) showed a rank of binding signal of 187 rank. NLEEEDD (peptide) was tested, and the rank of binding signal was 65 rank. TRYFSMW (peptide) gave a rank of binding signal of 73 rank. VDEQAEQ (peptide) gave a rank of binding signal of 20 rank. In the case of YSFFRNF (peptide), the rank of binding signal is reported as 104 rank.

Reference: patent publication US20250213707A1, “COMPOUND FOR INCREASING EFFICACY OF ONCOLYTIC VIRUSES” (ABLEVIA BIOTECH GMBH, priority 2022, published 2025)
